T1: murine IL-11R on Ba/F3 cells stably transfected with murine IL-11R/gp130 (murine, UniProt Q64385 24-432)
T1 sequence (looked up): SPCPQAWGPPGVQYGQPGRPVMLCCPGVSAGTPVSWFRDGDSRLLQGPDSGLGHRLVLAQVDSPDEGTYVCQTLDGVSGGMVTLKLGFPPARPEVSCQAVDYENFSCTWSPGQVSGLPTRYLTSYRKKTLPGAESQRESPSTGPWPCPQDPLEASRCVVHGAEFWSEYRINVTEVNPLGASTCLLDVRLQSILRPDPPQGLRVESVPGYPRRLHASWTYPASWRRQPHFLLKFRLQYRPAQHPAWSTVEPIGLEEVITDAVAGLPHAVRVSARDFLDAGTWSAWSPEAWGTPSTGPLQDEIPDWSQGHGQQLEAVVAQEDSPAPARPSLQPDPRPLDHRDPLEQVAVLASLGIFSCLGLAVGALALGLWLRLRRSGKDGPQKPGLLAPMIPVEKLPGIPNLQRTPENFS


Columns and labels:
IL-11R-Fc [1] = assay: competition ELISA on IL-11R-Fc
IL-11R-Fc [2] = assay: IL-11R binding ELISA
[3] = target: T1, murine IL-11R on Ba/F3 cells stably …; assay: cell-based or functional assay

| fold higher binding affinity than murine W147A IL-11 (IL-11R-Fc [1]) | fold reduction of binding affinity relative to non-PEGylated mutein (IL-11R-Fc [2]) | ability to antagonize IL-11-induced Ba/F3 cell proliferation, relative to non-PEGylated mutein [3] | Molecule |
| --- | --- | --- | --- |
| 20 fold | – | – | IL-11 mutein of SEQ ID NO: 1 (AMSAG at positions 58-62 of mature murine IL-11 replaced with PAIDY, tryptophan at position 147 replaced with alanine), N-terminal His-tagged (from UniProt P47873 22-199) (ligand) |
| – | 5 fold | ~10 fold | PEGylated mutein (mutein of SEQ ID NO: 3 with a single 40 kDa PEG moiety on the Cys introduced at position 147) (ligand, mPEG2-maleimide (single 40 kDa PEG moiety) on the Cys introduced at position 147 (position as printed, numbering of mature murine IL-11)) VSSDPRADLDSAVLLTRSLLADTRQLAAQMRDKFPADGDHSLDSLPTLPAIDYTLGSLQLPGVLTRLRVDLMSYLRHVQWLRRAGGPSLKTLEPELGALQARLERLLRRLQLLMSRLALPQAAPDQPVIPLGPPASACGSIRAAHAILGGLHLTLDWAVRGLLLLKTRL |

From patent US20090202533A1 (CSL, published 2009)
